Source: patent publication US20030203372A1, “Analysis method” (priority 2000, published 2003)

System: primary human cell cultures (11 cell types)
Test: Custom gene array, 11 human cell types in normoxia or hypoxia for 6 hr and 18 hr;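 for mRNA expression level, #1 HY 18 hr: cell type #1 is adipocyte from subcutaneous adult adipose tissue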;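 for mRNA expression level, #1 HY 6 hr: cell type #1 is adipocyte from subcutaneous adult adipose tissue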;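 for mRNA expression level, #1 NO: cell type #1 is adipocyte from subcutaneous adult adipose tissue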;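 for mRNA expression level, #2 HY 18 hr: cell type #2 is fetal cardiomyocyte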;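 for mRNA expression level, #2 HY 6 hr: cell type #2 is fetal cardiomyocyte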;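 for mRNA expression level, #2 NO: cell type #2 is fetal cardiomyocyte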;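 for mRNA expression level, #3 HY 6 hr: cell type #3 is human umbilical vein endothelial cells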;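 for mRNA expression level, #3 NO: cell type #3 is human umbilical vein endothelial cells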;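 for mRNA expression level, #4 HY 18 hr: cell type #4 is adult dermal fibroblast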;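 for mRNA expression level, #4 HY 6 hr: cell type #4 is adult dermal fibroblast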;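 for mRNA expression level, #4 NO: cell type #4 is adult dermal fibroblast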;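 for mRNA expression level, #6 HY 6 hr: cell type #6 is blood-derived macrophage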;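 for mRNA expression level, #6 NO: cell type #6 is blood-derived macrophage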
Format: cell-based
Conditions: for mRNA expression level, #1 HY 6 hr: cell type #1, hypoxia 6 hr; for mRNA expression level, #1 HY 18 hr: cell type #1, hypoxia 18 hr; for mRNA expression level, #1 NO: cell type #1, normoxia; for mRNA expression level, #2 HY 6 hr: cell type #2, hypoxia 6 hr; for mRNA expression level, #2 HY 18 hr: cell type #2, hypoxia 18 hr; for mRNA expression level, #2 NO: cell type #2, normoxia; for mRNA expression level, #3 HY 6 hr: cell type #3, hypoxia 6 hr; for mRNA expression level, #3 HY 18 hr: cell type #3, hypoxia 18 hr; for mRNA expression level, #3 NO: cell type #3, normoxia; for mRNA expression level, #4 HY 6 hr: cell type #4, hypoxia 6 hr; for mRNA expression level, #4 HY 18 hr: cell type #4, hypoxia 18 hr; for mRNA expression level, #4 NO: cell type #4, normoxia; for mRNA expression level, #5 HY 6 hr: cell type #5, hypoxia 6 hr; for mRNA expression level, #5 NO: cell type #5, normoxia; for mRNA expression level, #6 HY 6 hr: cell type #6, hypoxia 6 hr; for mRNA expression level, #6 NO: cell type #6, normoxia
Experimental: Equivalent cultures of non-immortalized, non-transformed primary human cells of 10 distinct types, were cultured in either normoxia or were exposed to hypoxia for 6 hr and 18 hr, and gene expression changes were determined. […] Moreover, unlike the vast majority of information in the public domain relating to genes responsive to hypoxia, all of these cells were human and were cultured without any modifications following isolation from the human donors.
A non-primary cell type (#9) was used to represent neurons, since primary human neurons are difficult to source. Therefore a total of 11 cell types are compared. It should be noted that RNA from hepatocytes at the […] timepoint of hypoxia was not available for this work.
Each RNA sample was hybridised to duplicate or triplicate arrays, to ensure reproducible data, and was analysed using GeneSpring software. Data from replicate arrays were merged during analysis to generate mean values. Data normalisation was achieved per-array using the aforementioned list of control genes, such that differences in RNA labelling or hybridization due to experimental variation were corrected by referencing each gene to the mean value of the reference genes on the same array. Also, for each gene, expression values were obtained which represent the value in each experimental condition (e.g. macrophages 6 hr hypoxia) as compared to the median of value of that gene throughout the full range of experimental conditions (i.e. from all cell types). […] This is common in microarray data analysis.

B1: p2A24 (nucleic acid, listed as Homo Sapiens)
DNA: TTTTTTTTTATTTGGATTCTATTTATTTAAAATTAAATTCTTTGCAAAATTGAACTTCTCAACTAAAACGTGTCCATGTCAGAATTTTAACTGTTAGCAGGTAGTTTGTGGCAAAGATGGCTAAATAATGAAGCAAATTAGAATCTGTGTGTATACTAATGAGCTGCTTTTTTTCTGTTGAGACTATCATTATTTGTCTTATTACCCAAGAGGCAATTACCTGAATTTGGATGTCTGAATTATAACTTATGCAGGAATAGTTCTGTAAATACATTTAAATAAACTGTAAAGATATTTAATAAATATAGTATTTATACTAATCTGTGTGCTTCTTTTGGTTTGAATAGTAACTAAATGAGACACCAGCCCTTGACATTGAGTTTGTTGGTCACTATCAGGTCCTCATTTCCAAGCCTCCTAGTCATTCTAGCACTGATTATATGCTGCTACTTTAACTGGCTCCAGCTGCTTCACTACATCAGTTTAGCTTCCTCAGAAATTCATCAAAATGGACGGACAATTAAATGTAAATTATAGAACTTTTTCCCAGCTGAGGCTTTGCACCTTCCGTATAGTATAGAGGGAAGCTACAAAAA
HIGHEST FOLD CHANGE IN HYPOXIA (hr hypoxia + cell type) (DOWN, 18 hr adipocyte): 1.85 DOWN (18 hr adipocyte) ^ fold | mRNA expression level, #1 HY 6 hr: 0.65 | mRNA expression level, #1 HY 18 hr: 0.67 | mRNA expression level, #1 NO: 1.21 | mRNA expression level, #2 HY 6 hr: 2.21 | mRNA expression level, #2 HY 18 hr: 2.48 | mRNA expression level, #2 NO: 2.42 | mRNA expression level, #3 HY 6 hr: 3.05 | mRNA expression level, #3 HY 18 hr: 2.59 | mRNA expression level, #3 NO: 2.35 | mRNA expression level, #4 HY 6 hr: 0.76 | mRNA expression level, #4 HY 18 hr: 0.68 | mRNA expression level, #4 NO: 1.10 | mRNA expression level, #5 HY 6 hr: 0.91 | mRNA expression level, #5 NO: 0.68 | mRNA expression level, #6 HY 6 hr: 0.22 | mRNA expression level, #6 NO: 0.28

B2: p1E11 (nucleic acid, listed as Homo Sapiens)
DNA: TCTCTACAAATNNCTATAACAAAACTTTTTAGGAAAGTACCACAAATATGTTAAACAGAAGAAGCAAATCTCAAATAATGTGCAAAAGCTGTGAGTTTCTTCTTACATAAAACTGGTACCTAAGCAAGTGAGGGTTCATTTTATTTTTCACTCACCAATCCCCATATCATTATACAGTAACACCATACAGCCAAAACGGCCATGATATTCCTCCCTTCTCAGCCAAAATTGGGCAAGAGAGAATGACCCTTGTAGGGGAAAAGAAACCTCTACGATAAACTGAAATGCCACCATCAGGGTTTGTTGAAACTGTAGGNACAGGGTCTACGNCTCACTTAGCTGCTAATGAGTTTCTATGGTTCCAGNTGGGGTAGTTCAAAGTA
modifications: EST array clone; misc_feature 12, 13, 317, 330, 366: n = A,T,C or G
mRNA expression level, #1 HY 6 hr: 1.12 | mRNA expression level, #1 HY 18 hr: 0.87 | mRNA expression level, #1 NO: 1.36 | mRNA expression level, #2 HY 6 hr: 2.86 | mRNA expression level, #2 HY 18 hr: 3.03 | mRNA expression level, #2 NO: 2.09 | mRNA expression level, #3 HY 6 hr: 0.91 | mRNA expression level, #3 HY 18 hr: 0.88 | mRNA expression level, #3 NO: 0.74 | mRNA expression level, #4 HY 6 hr: 0.59 | mRNA expression level, #4 HY 18 hr: 0.79 | mRNA expression level, #4 NO: 0.89 | mRNA expression level, #5 HY 6 hr: 2.09 | mRNA expression level, #5 NO: 0.77 | mRNA expression level, #6 HY 6 hr: 2.97 | #6 HY 18 hr (mRNA expression level) (cell type #6, hypoxia 18 hr): 2.90 | mRNA expression level, #6 NO: 2.76 | #7 HY 6 hr (mRNA expression level) (cell type #7, hypoxia 6 hr): 0.64 | #7 HY 18 hr (mRNA expression level) (cell type #7, hypoxia 18 hr): 0.34 | #7 NO (mRNA expression level) (cell type #7, normoxia): 0.63 | #8 HY 6 hr (mRNA expression level) (cell type #8, hypoxia 6 hr): 1.47 | #8 HY 18 hr (mRNA expression level) (cell type #8, hypoxia 18 hr): 1.35 | #8 NO (mRNA expression level) (cell type #8, normoxia): 0.64 | #9 HY 6 hr (mRNA expression level) (cell type #9, hypoxia 6 hr): 1.16 | #9 HY 18 hr (mRNA expression level) (cell type #9, hypoxia 18 hr): 0.64 | #9 NO (mRNA expression level) (cell type #9, normoxia): 1.18 | #10 HY 6 hr (mRNA expression level) (cell type #10, hypoxia 6 hr): 0.79 | #10 HY 18 hr (mRNA expression level) (cell type #10, hypoxia 18 hr): 0.88 | #10 NO (mRNA expression level) (cell type #10, normoxia): 0.74 | #11 HY 6 hr (mRNA expression level) (cell type #11, hypoxia 6 hr): 2.49 | #11 HY 18 hr (mRNA expression level) (cell type #11, hypoxia 18 hr): 1.93 | #11 NO (mRNA expression level) (cell type #11, normoxia): 1.79 | HIGHEST FOLD CHANGE IN HYPOXIA (hr hypoxia + cell type) (hypoxia/normoxia induction ratio, 6 hr hepatocyte): 2.73 (6 hr hepatocyte) fold
